According to patent publication US20240301064A1 (published 2024):
Residue numbers refer to the chain shown, from its start. Several values for one entry are separate records, joined by “and”; a condition that tells them apart may be missing. Equal values may be shown once.

B1: PMAB134 (bispecific antibody, human IgG1, kappa)
heavy: EVQLLESGGGLVQPGGSLRLSCAASGFTFSNSDMSWVRQAPGKGLEWVSGITISGGSTYYADSVKGRFTISRDNSKNTLYLQMNSLRAEDTAVYYCARGRGGSGWLDYWGQGTLVTVSSASTKGPSVFPLAPSSKSTSGGTAALGCLVKDYFPEPVTVSWNSGALTSGVHTFPAVLQSSGLYSLSSVVTVPSSSLGTQTYICNVNHKPSNTKVDKKVEPKSCDKTHTCPPCPAPEAAGAPSVFLFPPKPKDTLMISRTPEVTCVVVDVSHEDPEVKFNWYVDGVEVHNAKTKPREEQYNSTYRVVSVLTVLHQDWLNGKEYKCKVSNKALPAPIEKTISKAKGQPREPQVYTLPPSREEMTKNQVSLTCLVKGFYPSDIAVEWESNGQPENNYKTTPPVLDSDGSFFLYSKLTVDKSRWQQGNVFSCSVMHEALHNHYTQKSLSLSPGGGGGSGGGGSGGGGSEVQLLESGGGLVQPGGSLRLSCAASGFTFSDFWMHWVRQAPGKGLEWISYISGDSGYTNYADSVKGRFTISRDNSKNTLYLQMNSLRAEDTAVYYCARDRPYYYYMDVWGKGTTVTVSSGGGGSGGGGSGGGGSGGGGSDIQMTQSPSSLSASVGDRVTITCRASQSVSRSLAWYQQKPGKAPKLLIYAASSLQSGVPSRFSGSGSGTDFTLTISSLQPEDFATYYCQQYKSYPVTFGQGTKVEIK
light: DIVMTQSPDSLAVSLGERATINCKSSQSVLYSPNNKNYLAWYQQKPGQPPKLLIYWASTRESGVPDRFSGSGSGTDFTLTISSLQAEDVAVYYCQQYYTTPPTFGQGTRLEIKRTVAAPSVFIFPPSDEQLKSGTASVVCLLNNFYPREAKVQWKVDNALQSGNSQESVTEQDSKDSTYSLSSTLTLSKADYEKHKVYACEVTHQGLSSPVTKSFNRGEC
B2: PMAB139 (bispecific antibody, human IgG1, kappa)
heavy: B1 heavy with T52S
light: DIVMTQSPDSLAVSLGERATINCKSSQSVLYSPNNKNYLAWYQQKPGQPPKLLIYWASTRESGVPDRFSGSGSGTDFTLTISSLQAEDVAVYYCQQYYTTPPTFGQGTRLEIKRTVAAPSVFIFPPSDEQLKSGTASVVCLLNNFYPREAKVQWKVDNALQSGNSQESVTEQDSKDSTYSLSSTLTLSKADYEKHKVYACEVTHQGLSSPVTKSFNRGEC
B3: PMAB175 (bispecific antibody, human IgG1, kappa)
heavy: B1 heavy with N31S, S32Y
light: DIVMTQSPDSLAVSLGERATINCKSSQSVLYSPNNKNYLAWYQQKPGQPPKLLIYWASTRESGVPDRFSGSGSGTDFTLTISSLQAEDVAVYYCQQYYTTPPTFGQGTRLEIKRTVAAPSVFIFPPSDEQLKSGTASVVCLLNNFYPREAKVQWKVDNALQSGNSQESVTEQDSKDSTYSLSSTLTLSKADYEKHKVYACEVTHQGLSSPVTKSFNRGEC
B4: PMAB198 (bispecific antibody, human IgG1, kappa)
heavy: EVQLLESGGGLVQPGGSLRLSCAASGFTFSSYDMSWVRQAPGKGLEWVSGITISGGSTYYADSVKGRFTISRDNSKNTLYLQMNSLRAEDTAVYYCARGRGGSGWLDYWGQGTDVTVSSASTKGPSVFPLAPSSKSTSGGTAALGCLVKDYFPEPVTVSWNSGALTSGVHTFPAVLQSSGLYSLSSVVTVPSSSLGTQTYICNVNHKPSNTKVDKKVEPKSCDKTHTCPPCPAPEAAGAPSVFLFPPKPKDTLMISRTPEVTCVVVDVSHEDPEVKFNWYVDGVEVHNAKTKPREEQYNSTYRVVSVLTVLHQDWLNGKEYKCKVSNKALPAPIEKTISKAKGQPREPQVYTLPPSREEMTKNQVSLTCLVKGFYPSDIAVEWESNGQPENNYKTTPPVLDSDGSFFLYSKLTVDKSRWQQGNVFSCSVMHEALHNHYTQKSLSLSPGGGGGSGGGGSGGGGSEVQLLESGGGLVQPGGSLRLSCAASGFTFSSYWMHWVRQAPGKGLEWVSYISGSGGYTNYADSVKGRFTISRDNSKNTLYLQMNSLRAEDTAVYYCARDRPYGYYMDVWGKGTTVTVSSGGGGSGGGGSGGGGSGGGGSDIQMTQSPSSLSASVGDRVTITCRASQSISSSLAWYQQKPGKAPKLLIYAASSLQSGVPSRFSGSGSGTDFTLTISSLQPEDFATYYCQQYKSYPVTFGQGTKVEIK
light: not shown
B5: PMAB135 (bispecific antibody, human IgG1, kappa)
heavy: B1 heavy with N31S
light: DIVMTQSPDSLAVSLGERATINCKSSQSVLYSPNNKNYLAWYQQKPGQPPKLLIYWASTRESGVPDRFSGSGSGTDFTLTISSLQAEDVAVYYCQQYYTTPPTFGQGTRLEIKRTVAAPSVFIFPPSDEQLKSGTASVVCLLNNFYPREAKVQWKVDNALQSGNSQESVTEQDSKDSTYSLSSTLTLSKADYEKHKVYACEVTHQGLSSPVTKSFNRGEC
B6: PMAB195 (bispecific antibody, human IgG1, kappa)
heavy: B4 heavy with D114L
light: not shown
B7: PMAB142 (bispecific antibody, human IgG1, kappa)
heavy: B1 heavy
light: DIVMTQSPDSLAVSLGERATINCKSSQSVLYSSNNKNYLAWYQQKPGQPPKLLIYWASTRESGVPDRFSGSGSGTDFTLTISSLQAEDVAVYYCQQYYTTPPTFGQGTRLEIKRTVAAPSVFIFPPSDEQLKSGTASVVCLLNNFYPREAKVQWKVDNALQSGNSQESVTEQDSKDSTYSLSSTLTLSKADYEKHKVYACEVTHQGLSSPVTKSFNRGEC
B8: PMAB178 (bispecific antibody, human IgG1, kappa)
heavy: B1 heavy with N31S, S32Y, I53G
light: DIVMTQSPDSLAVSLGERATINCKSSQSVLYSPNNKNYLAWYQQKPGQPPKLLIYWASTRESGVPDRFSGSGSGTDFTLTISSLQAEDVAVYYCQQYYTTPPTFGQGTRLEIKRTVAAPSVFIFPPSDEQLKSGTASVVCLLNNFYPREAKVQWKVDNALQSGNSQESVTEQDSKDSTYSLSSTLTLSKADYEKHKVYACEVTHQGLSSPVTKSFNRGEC
B9: PMAB143 (bispecific antibody, human IgG1, kappa)
heavy: B1 heavy
light: not shown
B10: PMAB183 (bispecific antibody, human IgG1, kappa)
heavy: B1 heavy with G50A, T52S, I53G
light: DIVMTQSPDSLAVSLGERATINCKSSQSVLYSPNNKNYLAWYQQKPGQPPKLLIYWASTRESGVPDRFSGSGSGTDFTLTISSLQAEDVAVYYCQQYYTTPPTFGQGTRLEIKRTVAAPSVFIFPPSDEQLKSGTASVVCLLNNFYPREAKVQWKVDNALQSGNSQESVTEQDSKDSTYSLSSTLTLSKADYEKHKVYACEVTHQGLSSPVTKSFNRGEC
B11: PMAB140 (bispecific antibody, human IgG1, kappa)
heavy: B1 heavy with I53G
light: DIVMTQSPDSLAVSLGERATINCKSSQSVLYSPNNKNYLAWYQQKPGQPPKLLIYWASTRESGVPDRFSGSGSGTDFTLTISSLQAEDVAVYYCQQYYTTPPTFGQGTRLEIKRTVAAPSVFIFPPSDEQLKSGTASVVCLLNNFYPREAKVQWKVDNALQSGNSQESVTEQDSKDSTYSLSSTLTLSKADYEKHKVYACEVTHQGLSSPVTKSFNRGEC
B12: PMAB136 (bispecific antibody, human IgG1, kappa)
heavy: B1 heavy with S32Y
light: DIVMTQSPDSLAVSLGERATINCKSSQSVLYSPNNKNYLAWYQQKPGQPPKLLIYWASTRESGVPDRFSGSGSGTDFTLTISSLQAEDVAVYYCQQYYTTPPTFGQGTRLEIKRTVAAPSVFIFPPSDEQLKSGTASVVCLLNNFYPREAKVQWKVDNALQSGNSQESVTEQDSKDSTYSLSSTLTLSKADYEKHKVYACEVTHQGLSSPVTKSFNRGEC
B13: PMAB138 (bispecific antibody, human IgG1, kappa)
heavy: B1 heavy with G50A
light: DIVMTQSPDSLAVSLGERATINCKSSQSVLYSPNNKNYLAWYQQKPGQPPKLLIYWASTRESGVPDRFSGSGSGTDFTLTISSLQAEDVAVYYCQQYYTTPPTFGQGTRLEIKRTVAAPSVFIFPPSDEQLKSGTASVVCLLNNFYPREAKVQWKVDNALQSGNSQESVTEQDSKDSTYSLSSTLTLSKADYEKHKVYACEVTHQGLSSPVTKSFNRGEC
B14: PMAB199 (bispecific antibody, human IgG1, kappa)
heavy: B4 heavy with D114T
light: not shown
B15: PMAB176 (bispecific antibody, human IgG1, kappa)
heavy: B1 heavy with N31S, S32Y, G50A
light: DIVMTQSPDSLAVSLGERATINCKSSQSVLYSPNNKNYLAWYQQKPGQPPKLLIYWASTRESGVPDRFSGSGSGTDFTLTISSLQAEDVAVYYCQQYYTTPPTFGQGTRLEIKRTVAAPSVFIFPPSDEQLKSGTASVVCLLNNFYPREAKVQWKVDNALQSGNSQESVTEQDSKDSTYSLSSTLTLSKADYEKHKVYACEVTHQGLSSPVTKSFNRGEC
B16: PMAB194 (bispecific antibody, human IgG1, kappa)
heavy: B4 heavy with D114L
light: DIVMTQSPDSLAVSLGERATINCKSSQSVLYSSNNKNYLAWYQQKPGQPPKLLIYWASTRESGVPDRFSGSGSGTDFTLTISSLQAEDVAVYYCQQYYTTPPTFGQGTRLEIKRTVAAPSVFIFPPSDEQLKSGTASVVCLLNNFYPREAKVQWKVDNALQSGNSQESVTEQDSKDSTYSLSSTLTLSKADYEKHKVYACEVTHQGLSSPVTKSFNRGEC
B17: PMAB177 (bispecific antibody, human IgG1, kappa)
heavy: B1 heavy with N31S, S32Y, T52S
light: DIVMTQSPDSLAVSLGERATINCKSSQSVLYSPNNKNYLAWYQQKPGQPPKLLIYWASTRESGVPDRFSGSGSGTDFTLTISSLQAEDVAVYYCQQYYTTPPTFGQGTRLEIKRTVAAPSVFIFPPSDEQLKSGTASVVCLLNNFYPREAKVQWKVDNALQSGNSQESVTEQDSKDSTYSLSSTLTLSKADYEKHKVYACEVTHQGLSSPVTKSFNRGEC
B18: PMAB119 (bispecific antibody, human IgG1, kappa)
heavy: QVQLVQSGAEVKKPGASVKVSCKASGYSFTTYYMHWVRQAPGQGLEWMGIIAPSGGSTSYAQKFQGRVTMTRDTSTSTVYMELSSLRSEDTAVYYCASGWVYWGQGTLVTVSSASTKGPSVFPLAPSSKSTSGGTAALGCLVKDYFPEPVTVSWNSGALTSGVHTFPAVLQSSGLYSLSSVVTVPSSSLGTQTYICNVNHKPSNTKVDKKVEPKSCDKTHTCPPCPAPEAAGAPSVFLFPPKPKDTLMISRTPEVTCVVVDVSHEDPEVKFNWYVDGVEVHNAKTKPREEQYNSTYRVVSVLTVLHQDWLNGKEYKCKVSNKALPAPIEKTISKAKGQPREPQVYTLPPSREEMTKNQVSLTCLVKGFYPSDIAVEWESNGQPENNYKTTPPVLDSDGSFFLYSKLTVDKSRWQQGNVFSCSVMHEALHNHYTQKSLSLSPGGGGGSGGGGSGGGGSEVQLLESGGGLVQPGGSLRLSCAASGFTFSDFWMHWVRQAPGKGLEWISYISGDSGYTNYADSVKGRFTISRDNSKNTLYLQMNSLRAEDTAVYYCARDRPYYYYMDVWGKGTTVTVSSGGGGSGGGGSGGGGSGGGGSDIQMTQSPSSLSASVGDRVTITCRASQSVSRSLAWYQQKPGKAPKLLIYAASSLQSGVPSRFSGSGSGTDFTLTISSLQPEDFATYYCQQYKSYPVTFGQGTKVEIK
light: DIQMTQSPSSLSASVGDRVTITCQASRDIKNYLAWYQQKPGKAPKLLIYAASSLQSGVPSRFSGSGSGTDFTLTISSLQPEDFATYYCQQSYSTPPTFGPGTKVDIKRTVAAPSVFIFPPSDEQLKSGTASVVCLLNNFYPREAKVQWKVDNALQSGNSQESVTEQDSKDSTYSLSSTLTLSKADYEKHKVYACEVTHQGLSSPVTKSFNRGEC
B19: PMAB108 (bispecific antibody, human IgG1, kappa)
heavy: B18 heavy with S28T
light: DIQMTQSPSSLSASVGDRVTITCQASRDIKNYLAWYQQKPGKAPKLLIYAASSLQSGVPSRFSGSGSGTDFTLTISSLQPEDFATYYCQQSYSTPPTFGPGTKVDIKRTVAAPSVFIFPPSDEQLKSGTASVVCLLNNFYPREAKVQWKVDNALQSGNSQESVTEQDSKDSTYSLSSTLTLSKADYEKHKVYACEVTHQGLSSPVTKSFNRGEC
B20: PMAB114 (bispecific antibody, human IgG1, kappa)
heavy: B18 heavy
light: not shown
B21: PMAB115 (bispecific antibody, human IgG1, kappa)
heavy: B18 heavy
light: not shown
B22: PMAB109 (bispecific antibody, human IgG1, kappa)
heavy: B18 heavy with T31S
light: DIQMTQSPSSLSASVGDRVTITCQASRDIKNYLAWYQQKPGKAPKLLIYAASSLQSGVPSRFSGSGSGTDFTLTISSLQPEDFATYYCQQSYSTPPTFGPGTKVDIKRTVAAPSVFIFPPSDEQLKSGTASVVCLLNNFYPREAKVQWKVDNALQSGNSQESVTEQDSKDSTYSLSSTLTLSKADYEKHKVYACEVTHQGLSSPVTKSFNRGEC
B23: PMAB112 (bispecific antibody, human IgG1, kappa)
heavy: B18 heavy
light: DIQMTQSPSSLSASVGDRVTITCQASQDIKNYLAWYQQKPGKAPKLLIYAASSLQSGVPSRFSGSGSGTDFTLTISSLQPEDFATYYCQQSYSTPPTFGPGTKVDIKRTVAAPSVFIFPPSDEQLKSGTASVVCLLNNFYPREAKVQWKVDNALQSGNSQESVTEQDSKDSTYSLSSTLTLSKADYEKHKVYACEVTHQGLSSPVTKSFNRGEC
B24: PMAB111 (bispecific antibody, human IgG1, kappa)
heavy: B18 heavy
light: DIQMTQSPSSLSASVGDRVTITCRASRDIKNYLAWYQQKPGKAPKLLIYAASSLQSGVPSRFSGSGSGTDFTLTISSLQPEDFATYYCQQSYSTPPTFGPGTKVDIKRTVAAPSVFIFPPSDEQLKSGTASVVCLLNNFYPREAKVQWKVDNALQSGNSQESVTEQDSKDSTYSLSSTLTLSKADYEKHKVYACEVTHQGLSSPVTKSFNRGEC
B25: PMAB113 (bispecific antibody, human IgG1, kappa)
heavy: B18 heavy
light: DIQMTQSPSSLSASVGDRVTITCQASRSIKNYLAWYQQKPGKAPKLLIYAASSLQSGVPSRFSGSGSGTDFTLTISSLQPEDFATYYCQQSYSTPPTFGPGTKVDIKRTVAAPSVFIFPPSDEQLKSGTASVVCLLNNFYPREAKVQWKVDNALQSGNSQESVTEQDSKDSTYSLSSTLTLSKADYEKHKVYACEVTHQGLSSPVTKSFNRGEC
B26: PMAB217 (bispecific antibody, human IgG1, kappa)
heavy: QVQLVQSGAEVKKPGASVKVSCKASGYTFSDHYMHWVRQAPGQGLEWMGTIAPSGGRTSYAQKFQGRVTMTRDTSTSTVYMELSSLRSEDTAVYYCAADNGHASGWLYYYGMDVWGQGTTVTVSSASTKGPSVFPLAPSSKSTSGGTAALGCLVKDYFPEPVTVSWNSGALTSGVHTFPAVLQSSGLYSLSSVVTVPSSSLGTQTYICNVNHKPSNTKVDKKVEPKSCDKTHTCPPCPAPEAAGAPSVFLFPPKPKDTLMISRTPEVTCVVVDVSHEDPEVKFNWYVDGVEVHNAKTKPREEQYNSTYRVVSVLTVLHQDWLNGKEYKCKVSNKALPAPIEKTISKAKGQPREPQVYTLPPSREEMTKNQVSLTCLVKGFYPSDIAVEWESNGQPENNYKTTPPVLDSDGSFFLYSKLTVDKSRWQQGNVFSCSVMHEALHNHYTQKSLSLSPGGGGGSGGGGSGGGGSEVQLLESGGGLVQPGGSLRLSCAASGFTFSDFWMHWVRQAPGKGLEWISYISGDSGYTNYADSVKGRFTISRDNSKNTLYLQMNSLRAEDTAVYYCARDRPYYYYMDVWGKGTTVTVSSGGGGSGGGGSGGGGSGGGGSDIQMTQSPSSLSASVGDRVTITCRASQSVSRSLAWYQQKPGKAPKLLIYAASSLQSGVPSRFSGSGSGTDFTLTISSLQPEDFATYYCQQYKSYPVTFGQGTKVEIK
light: not shown
B27: PMAB202 (bispecific antibody, human IgG1, kappa)
heavy: B26 heavy with D31S
light: not shown
B28: PMAB205 (bispecific antibody, human IgG1, kappa)
heavy: B26 heavy with R57S
light: not shown
B29: PMAB201 (bispecific antibody, human IgG1, kappa)
heavy: B26 heavy with S30T
light: not shown
B30: PMAB204 (bispecific antibody, human IgG1, kappa)
heavy: B26 heavy with T50I
light: not shown
B31: PMAB207 (bispecific antibody, human IgG1, kappa)
heavy: B26 heavy
light: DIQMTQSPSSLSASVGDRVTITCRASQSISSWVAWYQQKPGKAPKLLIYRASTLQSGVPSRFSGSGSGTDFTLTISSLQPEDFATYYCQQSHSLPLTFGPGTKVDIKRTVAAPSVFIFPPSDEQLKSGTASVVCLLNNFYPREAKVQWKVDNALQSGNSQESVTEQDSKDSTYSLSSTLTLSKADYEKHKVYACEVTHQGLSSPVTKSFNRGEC
B32: PMAB274 (antibody, human IgG1, kappa, V domains shown)
VH: EVQLVQSGAEVKKPGASVKVSCKASGYTFTTYYMHWVRQAPGQGLEWMGIINPSGGSTSYAQKFQGRVTMTRDTSTSTVYMELSSLRSEDTAVYYCASGWVYWGQGTLVTVSS
VL: DIQMTQSPSSLSASVGDRVTITCQASRDIKNYLAWYQQKPGKAPKLLIYAASSLQSGVPSRFSGSGSGTDFTLTISSLQPEDFATYYCQQSYSTPPTFGPGTKVDIKR
B33: PMAB277 (antibody, human IgG1, kappa, V domains shown)
VH: B32 VH
VL: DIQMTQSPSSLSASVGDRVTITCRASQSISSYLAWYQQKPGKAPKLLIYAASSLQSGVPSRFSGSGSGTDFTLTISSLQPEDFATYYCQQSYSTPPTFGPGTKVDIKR
B34: PMAB276 (antibody, human IgG1, kappa, V domains shown)
VH: B32 VH with T28S
VL: B32 VL
B35: PMAB275 (antibody, human IgG1, kappa, V domains shown)
VH: B32 VH with T28S, T31S
VL: B32 VL
B36: PMAB278 (antibody, human IgG1, kappa, V domains shown)
VH: B32 VH with T28S, T31S
VL: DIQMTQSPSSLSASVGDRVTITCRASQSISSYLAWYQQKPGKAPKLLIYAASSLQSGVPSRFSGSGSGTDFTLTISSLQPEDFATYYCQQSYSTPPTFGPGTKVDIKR

What follows are binders tested against T1, human PD-1 (human, UniProt Q15116 25-167, limits assumed) (assay: BLI, antibody on AHC tip, soluble PD-1).
T1 construct: also called huPD-1
T1 sequence (Q15116 25-167 limits assumed): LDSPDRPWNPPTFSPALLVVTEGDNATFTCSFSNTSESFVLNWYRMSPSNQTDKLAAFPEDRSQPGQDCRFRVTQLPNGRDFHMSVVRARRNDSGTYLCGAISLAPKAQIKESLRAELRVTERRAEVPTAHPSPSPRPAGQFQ

Row | Binder | Kd
1 | B1 | 6 nM and 11.6 nM and 11.1 nM
2 | B2 | 50 nM
3 | B3 | 77.1 nM
4 | B4 | 104 nM
5 | B5 | 3 nM
6 | B6 | 651 nM
7 | B7 | 33 nM
8 | B8 | 1300 nM
9 | B9 | 17 nM
10 | B10 | 11300 nM
11 | B11 | 22 nM
12 | B12 | 36 nM
13 | B13 | 53 nM
14 | B14 | 98.6 nM
15 | B15 | 894 nM
16 | B16 | 577 nM
17 | B17 | 809 nM
18 | B18 | 96.9 nM

Row | Binder | Kd
19 | B19 | 55.3 nM
20 | B20 | 113 nM
21 | B21 | 229 nM
22 | B22 | 85.9 nM
23 | B23 | 76.2 nM
24 | B24 | 67.6 nM
25 | B25 | 91.7 nM
26 | B26 | 424 nM
27 | B27 | 755 nM
28 | B28 | 795 nM
29 | B29 | 341 nM
30 | B30 | 1710 nM
31 | B31 | 445 nM
32 | B32 | 1790 nM
33 | B33 | 896 nM
34 | B34 | 985 nM
35 | B35 | 849 nM
36 | B36 | 892 nM
